± gives the standard deviation of the averaged measurements.
B1: library; a variant is named by its letters at N, in order (parent)
chain: GCUGUCACCGGAAUACCAGCAUCGUCUUGAUGCCCUUGGAAGUCCGGUCUGAUGAGUCCNNNNNGGACGAAACAGC

Tests used:
theophylline [1] = variants of: B1; assay: FACS-Seq fitted mean relative fluorescence mCherry/BFP without ligand (log10 relative fluorescence); higher = higher reporter protein expression; settings: HEK293T, ligand present: no
Protocol: (§1)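 Hammerhead (sTRSV) ribozyme switch libraries with a ligand aptamer grafted on stem I and a randomized N4-6 loop II, cloned into the 3' UTR of mCherry and transiently transfected into HEK293T cells; RNA-Seq 72 h post transfection with ligand added 1 h before transfection; RNA read count / plasmid DNA read count normalized to the non-cleaving sTRSVctl (x100), log10; sequences with >100 DNA reads. FACS-Seq: lentiviral library sorted into 6 bins after 48 h ligand, log-normal fit mean of mCherry/BFP scaled to controls. Printed sequences are partial switch sequences.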

theophylline [2] = variants of: B1; assay: normalized RNA/DNA level with ligand (relative to sTRSVctl = 100) (log10 (% of sTRSVctl)); higher = less ribozyme self-cleavage, higher mRNA level; settings: ligand concentration (+) RNA-Seq: 5 mM, HEK293T, reporter: mCherry (pCS4076), ligand present: yes
Protocol: as §1

theophylline [3] = variants of: B1; assay: normalized RNA/DNA level without ligand (relative to sTRSVctl = 100) (log10 (% of sTRSVctl)); higher = less ribozyme self-cleavage, higher mRNA level; settings: HEK293T, reporter: mCherry (pCS4076), ligand present: no
Protocol: as §1

theophylline [4] = variants of: B1; assay: FACS-Seq fitted mean relative fluorescence mCherry/BFP with ligand (log10 relative fluorescence); ligand concentration (+) FACS-Seq: 1 mM; higher = higher reporter protein expression; settings: HEK293T, ligand present: yes
Protocol: as §1

Row | Variant | FACS-Seq fitted mean (log10) (theophylline [1]) | normalized RNA/DNA level with ligand (log10) (theophylline [2]) | normalized RNA/DNA level without ligand (log10) (theophylline [3]) | FACS-Seq fitted mean (log10) (theophylline [4])
1 | CCCAC | 0.775 ± 0.051 | 1.975 ± 0.011 | 1.95 ± 0.061 | 0.711 ± 0.051
2 | GAUUU | 0.1728 ± 0.00021 | 2.05 ± 0.067 | 1.78 ± 0.12 | 0.28 ± 0.031
3 | GAUUG | 0.498 ± 0.059 | 1.98 ± 0.1 | 1.75 ± 0.12 | 0.711 ± 0.017
4 | UCCCU | 0.877 ± 0.032 | 2.08 ± 0.12 | 1.97 ± 0.026 | 1.03 ± 0.11
5 | UCCCG | 1.07 ± 0.16 | 2.027 ± 0.0081 | 2.008 ± 0.0028 | 1.055 ± 0.0097
6 | UCCCC | 1.11 ± 0.13 | 2.005 ± 0.019 | 2.01 ± 0.053 | 1.06 ± 0.032
7 | UCCAA | 0.973 ± 0.14 | 2.04 ± 0.078 | 1.84 ± 0.09 | 0.912 ± 0.053
8 | UCCAU | 1.01 ± 0.016 | 2.012 ± 0.019 | 1.96 ± 0.054 | 1.05 ± 0.11
9 | UCCAC | 0.712 ± 0.067 | 2.05 ± 0.04 | 1.95 ± 0.12 | 0.737 ± 0.036
10 | UCCAG | 0.956 ± 0.042 | 2.01 ± 0.07 | 1.92 ± 0.1 | 1.07 ± 0.13
11 | ACAGA | 0.413 ± 0.11 | 1.96 ± 0.064 | 1.54 ± 0.035 | 0.638 ± 0.062
12 | ACAGU | 0.512 ± 0.024 | 1.94 ± 0.057 | 1.65 ± 0.095 | 0.73 ± 0.011
13 | ACAGG | 0.315 ± 0.055 | 2 ± 0.057 | 1.78 ± 0.045 | 0.357 ± 0.0097
14 | ACAGC | 1 ± 0.1 | 1.97 ± 0.018 | 1.95 ± 0.053 | 0.971 ± 0.05
15 | GAUAU | 0.781 ± 0.093 | 1.946 ± 0.0078 | 1.75 ± 0.039 | 0.8102 ± 0.0061
16 | UCGCA | 0.556 ± 0.006 | 1.96 ± 0.055 | 1.57 ± 0.12 | 0.806 ± 0.091
17 | UAUCC | 0.705 ± 0.11 | 2.007 ± 0.016 | 2.02 ± 0.14 | 0.572 ± 0.019
18 | UAUCG | 1.02 ± 0.21 | 2.07 ± 0.028 | 2 ± 0.07 | 0.934 ± 0.064

Row | Variant | FACS-Seq fitted mean (log10) (theophylline [1]) | normalized RNA/DNA level with ligand (log10) (theophylline [2]) | normalized RNA/DNA level without ligand (log10) (theophylline [3]) | FACS-Seq fitted mean (log10) (theophylline [4])
19 | ACAUA | 0.248 ± 0.061 | 1.94 ± 0.1 | 1.72 ± 0.045 | 0.427 ± 0.032
20 | ACAUU | 1.04 ± 0.16 | 2 ± 0.036 | 1.85 ± 0.042 | 1.15 ± 0.18
21 | ACAUG | 0.862 ± 0.2 | 1.913 ± 0.0094 | 1.81 ± 0.02 | 1.01 ± 0.017
22 | ACAUC | 0.595 ± 0.053 | 2 ± 0.098 | 1.94 ± 0.03 | 0.599 ± 0.055
23 | ACGCC | 1.08 ± 0.17 | 1.95 ± 0.074 | 1.94 ± 0.19 | 0.984 ± 0.017
24 | ACGCA | 0.6839 ± 0.0046 | 1.99 ± 0.053 | 1.77 ± 0.03 | 0.824 ± 0.049
25 | AAUUU | 0.603 ± 0.084 | 1.98 ± 0.021 | 1.915 ± 0.0083 | 0.6371 ± 0.0013
26 | AAUUA | 0.392 ± 0.024 | 1.973 ± 0.0011 | 1.63 ± 0.13 | 0.477 ± 0.006
27 | AAUUG | 0.229 ± 0.1 | 2.02 ± 0.12 | 1.75 ± 0.15 | 0.292 ± 0.011
28 | AAUUC | 0.308 ± 0.094 | 1.981 ± 0.015 | 1.96 ± 0.033 | 0.335 ± 0.031
29 | CCAAU | 0.688 ± 0.1 | 1.95 ± 0.058 | 1.64 ± 0.14 | 0.7987 ± 0.0017
30 | CCAAA | 0.24 ± 0.12 | 1.97 ± 0.051 | 1.48 ± 0.06 | 0.619 ± 0.23
31 | CCAAC | 0.72 ± 0.09 | 1.952 ± 0.012 | 1.92 ± 0.069 | 0.767 ± 0.018
32 | CCGAA | -0.229 ± 0.1 | 1.93 ± 0.06 | 1.4 ± 0.089 | 0.178 ± 0.11
33 | CCGAU | 0.974 ± 0.065 | 2 ± 0.047 | 1.64 ± 0.11 | 1.06 ± 0.11
34 | CCGAC | 0.958 ± 0.04 | 1.94 ± 0.04 | 1.91 ± 0.13 | 1.06 ± 0.043
35 | AAUCG | 0.941 ± 0.16 | 2.06 ± 0.06 | 1.87 ± 0.1 | 0.953 ± 0.04
36 | AAUCC | 0.844 ± 0.012 | 2.04 ± 0.052 | 1.95 ± 0.07 | 0.808 ± 0.05

Source: the supplement of paper PMC6757056
